In PMC9482650, “Quantitative fragmentomics allow affinity mapping of interactomes” (Nature Communications, 2022):

T1: APBA3_1, O96018
T1 sequence (O96018 389-490, limits assumed, looked up): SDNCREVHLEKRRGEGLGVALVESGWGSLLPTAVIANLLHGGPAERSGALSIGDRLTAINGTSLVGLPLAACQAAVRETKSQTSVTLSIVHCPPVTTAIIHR

T2: SHANK1, Q9Y566
T2 sequence (Q9Y566 658-767, limits assumed, looked up): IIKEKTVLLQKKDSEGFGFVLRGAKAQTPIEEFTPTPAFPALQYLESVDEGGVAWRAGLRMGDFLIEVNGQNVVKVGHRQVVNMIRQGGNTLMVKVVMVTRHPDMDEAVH

T3: DFNB31_1, Q9P202
T3 sequence (Q9P202 135-233, limits assumed, looked up): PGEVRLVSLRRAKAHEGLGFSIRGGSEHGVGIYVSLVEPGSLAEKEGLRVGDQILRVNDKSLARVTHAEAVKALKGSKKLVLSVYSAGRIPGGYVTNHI

T4: LNX2_2, Q8N448
T4 sequence (Q8N448 334-432, limits assumed, looked up): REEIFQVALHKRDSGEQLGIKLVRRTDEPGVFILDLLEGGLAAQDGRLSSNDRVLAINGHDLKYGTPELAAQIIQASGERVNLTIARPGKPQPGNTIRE

T5: DFNB31_3, Q9P202
T5 sequence (Q9P202 811-907, limits assumed, looked up): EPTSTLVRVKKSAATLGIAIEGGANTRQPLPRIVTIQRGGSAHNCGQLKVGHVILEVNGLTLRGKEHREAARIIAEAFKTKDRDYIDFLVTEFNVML

T6: MPP2, Q14168
T6 sequence (Q14168 180-250, limits assumed, looked up): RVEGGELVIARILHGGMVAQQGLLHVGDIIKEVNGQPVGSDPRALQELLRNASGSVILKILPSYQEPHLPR

T7: MPP6, Q9NZW5
T7 sequence (Q9NZW5 125-219, limits assumed, looked up): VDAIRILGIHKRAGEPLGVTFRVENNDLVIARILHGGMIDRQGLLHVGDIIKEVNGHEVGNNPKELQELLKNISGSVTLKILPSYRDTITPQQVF

T8: MPDZ_12, O75970
T8 sequence (O75970 1857-1958, limits assumed, looked up): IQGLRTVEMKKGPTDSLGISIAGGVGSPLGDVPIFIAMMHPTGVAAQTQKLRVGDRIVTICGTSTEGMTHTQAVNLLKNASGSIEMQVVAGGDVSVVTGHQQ

T9: PDZD7_3, Q9H5P4
T9 sequence (Q9H5P4 857-944, limits assumed, looked up): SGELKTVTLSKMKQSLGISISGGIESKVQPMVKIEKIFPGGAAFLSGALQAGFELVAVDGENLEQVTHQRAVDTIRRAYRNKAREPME

T10: DLG3_3, Q92796
T10 sequence (Q92796 374-475, limits assumed, looked up): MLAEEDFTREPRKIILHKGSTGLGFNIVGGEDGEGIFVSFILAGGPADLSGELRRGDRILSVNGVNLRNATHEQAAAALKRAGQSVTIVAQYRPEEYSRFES


Legend:
Assay in all cases: holdup assay
Design in all cases: key: below the threshold = too weak to quantify, mostly under pKd 3.1 to 4
Settings in all cases: plain residues with an end cap or a label only (N-terminal biotin on a linker: ado-ado)
[1] = biological target: T1, APBA3_1, O96018
[2] = biological target: T2, SHANK1, Q9Y566
[3] = biological target: T3, DFNB31_1, Q9P202
[4] = biological target: T4, LNX2_2, Q8N448
[5] = biological target: Inadl_8, Q8NI35
[6] = biological target: CASK, O14936
[7] = biological target: MAGI2_6, Q86UL8
[8] = biological target: PTPN3, P26045
[9] = biological target: MAGI3_2, Q5TCQ9
[10] = biological target: LIMK2, P53671
[11] = biological target: LDB3, O75112
[12] = biological target: GRIP2_3, Q9C0E4
[13] = biological target: MAGI2_4, Q86UL8
[14] = biological target: DLG4_1, P78352
[15] = biological target: T5, DFNB31_3, Q9P202
[16] = biological target: IL16_3, Q14005
[17] = biological target: FRMPD3, Q5JV73
[18] = biological target: T6, MPP2, Q14168
[19] = biological target: TJP1_3, Q07157
[20] = biological target: GRIP2_4, Q9C0E4
[21] = biological target: SCRIB_3, Q14160
[22] = biological target: GRIP2_6, Q9C0E4
[23] = biological target: Inadl_1, Q8NI35
[24] = biological target: T7, MPP6, Q9NZW5
[25] = biological target: GRIP2_5, Q9C0E4
[26] = biological target: T8, MPDZ_12, O75970
[27] = biological target: T9, PDZD7_3, Q9H5P4
[28] = biological target: DLG4_2, P78352
[29] = biological target: T10, DLG3_3, Q92796

FRMPD3, Q5JV73, sequence (Q5JV73 12-100): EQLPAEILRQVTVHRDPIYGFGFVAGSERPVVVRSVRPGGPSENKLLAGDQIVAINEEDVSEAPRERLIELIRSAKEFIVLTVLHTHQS
GRIP2_5, Q9C0E4, sequence (Q9C0E4 544-642): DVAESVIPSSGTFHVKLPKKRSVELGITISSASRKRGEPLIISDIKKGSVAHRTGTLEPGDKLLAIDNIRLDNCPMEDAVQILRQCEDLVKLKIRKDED
CASK, O14936, sequence (O14936 487-570): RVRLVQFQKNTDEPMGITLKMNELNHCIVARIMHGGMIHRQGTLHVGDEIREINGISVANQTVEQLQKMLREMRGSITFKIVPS
GRIP2_3, Q9C0E4, sequence (Q9C0E4 238-339): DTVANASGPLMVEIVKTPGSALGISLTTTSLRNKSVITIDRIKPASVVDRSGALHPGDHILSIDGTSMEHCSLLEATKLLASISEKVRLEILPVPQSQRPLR
GRIP2_6, Q9C0E4, sequence (Q9C0E4 648-740): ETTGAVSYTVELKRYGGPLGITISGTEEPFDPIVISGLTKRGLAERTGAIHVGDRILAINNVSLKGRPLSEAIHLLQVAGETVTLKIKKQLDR
LIMK2, P53671, sequence (P53671 143-248): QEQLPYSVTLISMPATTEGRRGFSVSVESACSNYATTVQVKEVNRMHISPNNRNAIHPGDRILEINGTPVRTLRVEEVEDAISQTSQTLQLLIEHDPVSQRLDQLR
TJP1_3, Q07157, sequence (Q07157 416-512): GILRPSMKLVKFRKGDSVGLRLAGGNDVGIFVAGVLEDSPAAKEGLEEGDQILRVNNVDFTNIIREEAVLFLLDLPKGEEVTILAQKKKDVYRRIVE
MAGI2_4, Q86UL8, sequence (Q86UL8 772-865): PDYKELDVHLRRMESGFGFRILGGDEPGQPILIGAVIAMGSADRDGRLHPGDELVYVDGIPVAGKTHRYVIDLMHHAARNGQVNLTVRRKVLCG
IL16_3, Q14005, sequence (Q14005 1107-1207): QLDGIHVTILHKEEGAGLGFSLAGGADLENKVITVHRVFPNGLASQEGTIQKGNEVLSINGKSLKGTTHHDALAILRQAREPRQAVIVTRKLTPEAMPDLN
LDB3, O75112, sequence (O75112 1-94): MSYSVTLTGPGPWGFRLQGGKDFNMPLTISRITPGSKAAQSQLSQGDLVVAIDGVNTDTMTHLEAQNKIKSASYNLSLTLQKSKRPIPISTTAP
DLG4_1, P78352, sequence (P78352 62-152): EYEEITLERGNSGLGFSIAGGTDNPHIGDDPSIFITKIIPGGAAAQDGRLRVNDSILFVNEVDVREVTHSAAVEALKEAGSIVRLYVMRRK
GRIP2_4, Q9C0E4, sequence (Q9C0E4 446-548): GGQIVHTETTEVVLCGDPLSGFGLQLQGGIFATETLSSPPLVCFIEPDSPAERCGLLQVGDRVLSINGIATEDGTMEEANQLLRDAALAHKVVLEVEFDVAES
Inadl_1, Q8NI35, sequence (Q8NI35 113-229): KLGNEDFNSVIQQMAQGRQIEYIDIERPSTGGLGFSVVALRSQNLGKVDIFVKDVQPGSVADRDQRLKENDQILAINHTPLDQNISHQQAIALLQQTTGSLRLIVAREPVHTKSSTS
MAGI3_2, Q5TCQ9, sequence (Q5TCQ9 398-503): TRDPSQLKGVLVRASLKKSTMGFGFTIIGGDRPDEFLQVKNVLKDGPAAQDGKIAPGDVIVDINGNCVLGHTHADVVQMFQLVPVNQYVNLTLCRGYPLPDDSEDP
Inadl_8, Q8NI35, sequence (Q8NI35 1425-1530): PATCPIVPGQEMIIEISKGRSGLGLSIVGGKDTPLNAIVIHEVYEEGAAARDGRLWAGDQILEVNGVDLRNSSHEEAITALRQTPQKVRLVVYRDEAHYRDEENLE
PTPN3, P26045, sequence (P26045 505-587): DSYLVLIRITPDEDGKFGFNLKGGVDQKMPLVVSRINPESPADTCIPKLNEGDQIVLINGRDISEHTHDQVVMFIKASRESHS
MAGI2_6, Q86UL8, sequence (Q86UL8 1141-1229): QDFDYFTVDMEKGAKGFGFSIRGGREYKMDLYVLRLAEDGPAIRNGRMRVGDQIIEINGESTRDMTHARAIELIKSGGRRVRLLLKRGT
SCRIB_3, Q14160, sequence (Q14160 999-1103): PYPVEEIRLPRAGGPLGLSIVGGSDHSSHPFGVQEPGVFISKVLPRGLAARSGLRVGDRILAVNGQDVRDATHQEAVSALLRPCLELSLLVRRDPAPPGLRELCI
DLG4_2, P78352, sequence (P78352 155-259): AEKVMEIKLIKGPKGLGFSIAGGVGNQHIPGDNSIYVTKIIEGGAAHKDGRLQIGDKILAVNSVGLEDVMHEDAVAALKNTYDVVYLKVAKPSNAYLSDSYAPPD

pKd [1] | pKd [2] | pKd [3] | pKd [4] | pKd [5] | pKd [6] | pKd [7] | pKd [8] | pKd [9] | pKd [10] | pKd [11] | pKd [12] | pKd [13] | pKd [14] | pKd [15] | pKd [16] | pKd [17] | pKd [18] | pKd [19] | pKd [20] | also measured | Binder
below the threshold | 5.28 | 3.63 | 3.93 | 3.61 | below the threshold | 4.85 | 4.62 | below the threshold | below the threshold | below the threshold | below the threshold | below the threshold | below the threshold | 4.89 | below the threshold | below the threshold | below the threshold | below the threshold | below the threshold | pKd [21]: 4.88; pKd [22]: below the threshold; pKd [23]: 4.33; pKd [24]: below the threshold; pKd [25]: below the threshold; pKd [26]: 4.02; pKd [27]: 5.57; pKd [28]: 4.02; pKd [29]: below the threshold | ADEMICITTL [CACNA1D, Q01668]
below the threshold | below the threshold | below the threshold | below the threshold | below the threshold | below the threshold | below the threshold | 3.64 | below the threshold | below the threshold | below the threshold | below the threshold | below the threshold | below the threshold | below the threshold | below the threshold | below the threshold | below the threshold | below the threshold | below the threshold | pKd [21]: below the threshold; pKd [22]: below the threshold; pKd [23]: below the threshold; pKd [24]: below the threshold; pKd [25]: below the threshold; pKd [26]: below the threshold; pKd [27]: 3.52; pKd [28]: below the threshold; pKd [29]: below the threshold | MLPANYVEAI [NEB, P20929]
below the threshold | 3.76 | 5.43 | below the threshold | 3.5 | below the threshold | 3.97 | 5.05 | 4.87 | below the threshold | below the threshold | below the threshold | 3.72 | 4.44 | 4.11 | below the threshold | below the threshold | below the threshold | below the threshold | below the threshold | pKd [21]: 5; pKd [22]: below the threshold; pKd [23]: below the threshold; pKd [24]: 3.89; pKd [25]: below the threshold; pKd [26]: below the threshold; pKd [27]: 5.51; pKd [28]: 4.76; pKd [29]: 3.98 | TKDKVQETQI [LRRC4, Q9HBW1]
